The text below walks through data of patent publication US10428347B2, “Herbicide-detoxifying enzymes and uses thereof” (priority 2017, dated 2019).

The nature of series [1]: Absorbance spectra assay of MCPA-4 amine degradation by ChD or CAC. The class given is biochemical. To be noted: MCPA-4 amine 200 mg/L alone (no enzyme), 50 mM HEPES pH 7, one hour at 37° C. As for the experimental part: (§1) Small scale (1 mL) assays were performed to evaluate the ability of ChD and CAC to degrade MCPA-4 amine or mecoprop.
(§2) MCPA-4 amine and mecoprop have absorbance maxima (Amax) at approximately 230 and 280 nm. […] MCPA-4 amine or mecoprop end product generation is directly proportional to the degradation MCPA-4 amine or mecoprop, respectively.

A short description of series [2]: Absorbance spectra assay of mecoprop degradation by ChD or CAC. In kind it is biochemical. The note with it: mecoprop 200 mg/L alone (no enzyme), 50 mM HEPES pH 7, one hour at 37° C. The method, then: as §1, §2
The subject of series [3] is soybean seedlings. In words: Spray of enzyme-treated dicamba solution onto soybean seedlings. The class given is in vivo. The note with it: 208 μM dicamba, immobilized enzyme, 30° C., soybean seedlings, one week. As for the experimental part:
Salicylate monooxygenase (SM, SEQ ID NO: 21) and hydroxyphenylacetate monooxygenase (HPAM, SEQ ID NO: 30) were immobilized on particles. […] Aliquots (1 ml) were taken from incubated samples at 0 minutes, 10 minutes, 30 minutes, 1 hour, 5 hours, 24 hours and 30 hours after the introduction of SM and immediately frozen to stop the detoxification reaction. NADPH consumption was quantified by measuring loss of absorbance at 340 nm using a spectrophotometer. Results for SM are shown in panel A of FIG. 10 and results for HPAM are shown in panel A of FIG. 11. Consumption of NADPH is proportional to the degradation of dicamba.
Immediately after taking the absorbance measurements, the 1 ml aliquots were mixed with a nonionic organosilicone surfactant copolymer (0.1% SILWET L77) and 200 μL of the mixture was sprayed onto 2.5-week-old soybean seedlings (six plants per treatment group, on average). The use of the surfactant ensured even distribution of the solutions on the plants. Control plants were sprayed with water+surfactant alone or dicamba+surfactant alone. After one week, the degree of herbicide damage or the degree of protection from dicamba-induced injury (in plants treated with SM) was assessed visually.

Series [4] concerns lentil plants. In words: Lentil seeds coated with immobilized enzyme, grown in dicamba-containing soil. The class given is in vivo. As for the experimental part: For each treatment group, eighteen lentil seeds were coated with immobilized salicylate monooxygenase (SM, SEQ ID NO: 21) or hydroxyphenylacetate monooxygenase (HPAM, SEQ ID NO: 30), or with a water-only control (H2O) or a control containing only the particles used for immobilization, without any enzyme (“Particle Alone”). […] 50 ml of water was selected as this is the saturation point of this soil at this scale. Herbicides were allowed to sit in the soil for 24 hours before planting of coated seeds. Germination rate was measured at one week and root and shoot lengths were measured after two weeks.
Further data illustrating the protective effects of salicylate monooxygenase (SM) and hydroxyphenylacetate monooxygenase (HPAM) on lentil plants grown in dicamba-containing soil are provided in FIGS. 6-9. Lentil seeds were treated as described above with water alone, particle alone, or enzyme immobilized on a particle. […] Growth (shoot and root length) was measured at two weeks.

Series [5] has as its system soybean plants. As to the kind of experiment: Trifoliate damage scoring of soybean treated with SM1-dicamba reaction products. The class given is in vivo. To be noted: V1 soybean (Morsoy Xtra), 100 μL reaction product diluted 1:24 with 0.01% SILWET L-77 on trifoliate leaves, 6 plants; Time (hours) 2; scale 0-5. An excerpt:
These SM1-dicamba degradation products were applied to soybean seedlings (variety, Morsoy Xtra). […] The plants were scored based on trifoliate damage using the scale as described in Table 27.

How the values of series [6] were obtained:
A Bacillus subtilis (A64) control reaction, which was supernatant with no SM1 enzyme was performed in parallel. The reactions were incubated at 37° C. with 400 rpm stirring for two hours. Aliquots of the reactions were collected at time 0 (T0), 1 hour, and 2 hours, and frozen at −80° C.
HPLC column (Kinetex® 5 μm C18 100 Å, LC Column 50×4.6 mm) was equilibrated for 15 minutes with 35% acetonitrile and 65% 10 mM ammonium acetate with 0.1% formic acid in water. A volume of 10 μL of each sample was injected into Waters 2695 Separations Module with a 2996 Photodiode Array Detector. Samples were run isocratically (35% acetonitrile and 65% 10 mM ammonium acetate with 0.1% formic acid in water) for 2 minutes. […] An average of 3 measurements was run for each treatment sample.
The HPLC results as reported in FIG. 2 are the average of 3 sample measurements.

Series [7] is described as follows: Sorbitol dehydrogenase enzyme activity (NADH production at 340 nm). In kind it is biochemical. To be noted: for enzyme activity level: NAD^+ and sorbitol, absorbance readings at 340 nm at 5 min after the start of the reaction; for regeneration of NADH (NADH production, 0-36 min): vs no enzyme control and background A64. An excerpt: To determine enzyme activity for sorbitol dehydrogenase in the production samples, reactions were set up with NAD^+, sorbitol and the sorbitol dehydrogenase enzyme collected in supernatant derived from the Bacillus subtilis A64 cultures. Absorbance at 340 nm was monitored with a BioTek SYNERGY HTX plate reader (BioTek Industries Inc.). […] The extinction coefficient of NADH at 340 nm (6220 M^−1 cm^−1) was used to estimate the enzyme activity of the sorbitol dehydrogenase enzyme. The enzyme activity was compared to commercially available sorbitol dehydrogenase enzyme produced from sheep liver (S-3764, Sigma-Aldrich).
NADH production was measured and reported as an average of 7 measurements and reported over a time series (0-36 min.) for the sorbitol dehydrogenase GutB (SDH GutB), the sorbitol dehydrogenase from sheep liver (SDH control) and compared to the A64 filtrate and no enzyme treatments both used as negative controls in the enzyme assay.

For the molecule `Cc1cc(Cl)ccc1OCC(=O)O` [MCPA-4-Amine, 2-methyl-4-chlorophenoxyacetic acid, reference compound], in series [1], the “Absorbance Maxima at Wavelength (λ) 230” value is recorded as 1.739, the “Absorbance Maxima at Wavelength (λ) 252” value is reported as 0.2573 and the “Absorbance Maxima at Wavelength (λ) 280” value was 1.506.
As for `Cc1cc(Cl)ccc1OC(C)C(=O)[O-].[K+]` (racemic) [Mecoprop, Potassium (RS)-2-(2-methyl-4-chlorophenoxy)propionate, reference compound], in series [2], the “Absorbance Maxima at Wavelength (λ) 230” value stood at 1.723, the “Absorbance Maxima at Wavelength (λ) 252” value was determined as 0.2562 and the “Absorbance Maxima at Wavelength (λ) 280” value was 1.214.

B1: HPAM: hydroxyphenylacetate monooxygenase from Bacillus cereus BGSC 6E1, amino acid SEQ ID NO: 30 (protein, listed as Bacillus cereus)
chain: MAIRTGEQYIEGLRKRNPEIWIGGRKVTDVVNEDVFREPIIQIANLYDMQHNPEYQDKITHICEETGERVSNAFLVPRNYEDLKVRRELFEVWAKATYGLMGRTPDFLNVTVTSMASNSWFFEKFNPEWGANIKNYYKHIRDNDLFLTHAIINPQNDRSKASHQQEDETMHLGVVSETAEGMYVSGAKMLATLAPITDEVIIYSYPSFKPGDERHAISFAVPIDAPGLRILCREPMQDGKRSLFDHPLASRFEEMDALLVFHNVFIPWDKVFIYQSVEAGNQLYPKTGIGHQPAHQSGVRGLVKLSFAAEVAMKLADSIGVDGFLNVQNQLAELMQDVETIRALLQVAEYEYETNSYGEVIPARLPLDTIRSLLPKMYPRAIEIIQTIGAGGLLMSPTGADFMNPEIHDDMQKYYIGREGVSSEERVRLFKLAWDLCGEAFGQRLLQYERYYSGDPVRKMGMFYNAYKKQQTFSLVNNALQSSSSEGALS
For the molecule B1, the “incubation time of enzyme with dicamba giving plants equivalent to the water control” value in series [3] was 30 min. In series [4] (lentil seeds coated with immobilized enzyme, soil with dicamba 0.1× or […] label rate, one week, vs water and particle-alone controls), the germination rate entry is “positive effect”. Further, in series [4] (two-week-old lentil, soil with dicamba 0.1× label rate (0.588 mg/L), vs water only or particle only controls (FIG. 6, FIG. 8)), the shoot length entry is “longer shoot lengths”.

B2: SM1: salicylate monooxygenase from Bacillus cereus strain B377, amino acid SEQ ID NO: 251 (nucleotide SEQ ID NO: 243) (protein, listed as Bacillus cereus)
chain: MGKEKKYDAIVVGAGPVGLVAGLALQKKGISTLVIEADSFGRPRPGSRAIYLHSASLKLLEETSEGLGFTLAHNGIIWPVKRTFYKGKEVYVRDYGKDENLKFNRLPHFTALHQDEIEKHMYEACIKEGVEFLWDAPVKKLHITDSGVELTITNDEILKAQYVIGCDGARSIVREEAGLTFEGPRTADTFIVVDAKEDETDPLPLERIFHYQHPAMEGRNVMFVPFKGGWRIDLQLLESDNPDDYTNIESVKTWLPKVMDAKYAERITWVSSYRFHQVVANSFTDEKRRVLLAGEAAHLFAPFGARGLNSGIPDAVLAARGIEKALHSHSEEERVEAIEAAAKERRIAAQWNRDASTTALHHLQGSSPEMNMKRDIAASLVSIVPRLGRWLDEGPYGPKFGPPELTTKY
B2: the “average trifoliate damage score” value in series [5] was found to be 2.8. The “Percent Dicamba Concentration Relative to T0 control” value in series [6] (HPLC, Time 2 hours) is 84.3%. Moreover, the “dicamba concentration (HPLC)” value in series [6] (dicamba 100 ppm, 250 μL SM1 enzyme, 0.5 mM NADH, HEPES pH 7.0, 1 hour of incubation (FIG. 17)) is “decreased concentrations”. In series [6] (dicamba 100 ppm, 250 μL SM1 enzyme, 0.5 mM NADH, HEPES pH 7.0, 2 hours of incubation (FIG. 17)), the “decrease in dicamba concentration (HPLC)” value was “approximately 50%”.

B3: GutB sorbitol dehydrogenase: sorbitol dehydrogenase from Bacillus subtilis strain 168, SEQ ID NO: 288, cofactor-regenerating enzyme (protein, listed as Bacillus subtilis)
chain: MTHTVPQNMKAAVMHNTREIKIETLPVPDINHDEVLIKVMAVGICGSDLHYYTNGRIGNYVVEKPFILGHECAGEIAAVGSSVDQFKVGDRVAVEPGVTCGRCEACKEGRYNLCPDVQFLATPPVDGAFVQYIKMRQDFVFLIPDSLSYEEAALIEPFSVGIHAAARTKLQPGSTIAIMGMGPVGLMAVAAAKAFGAGTIIVTDLEPLRLEAAKKMGATHIINIREQDALEEIKTITNDRGVDVAWETAGNPAALQSALASVRRGGKLAIVGLPSQNEIPLNVPFIADNEIDIYGIFRYANTYPKGIEFLASGIVDTKHLVTDQYSLEQTQDAMERALQFKNECLKVMVYPNR
As for B3, in series [7], the enzyme activity level is 207 U/mL and the “regeneration of NADH (NADH production, 0-36 min)” value was “sufficient ability to reduce NAD to NADH”.

B4: SDH control: commercially available sorbitol dehydrogenase enzyme produced from sheep liver (S-3764, Sigma-Aldrich) (protein, UniProt P07846 1-354, looked up)
Sorbitol dehydrogenase: AKPAAENLSLVVHGPGDLRLENYPIPEPGPNEVLLKMHSVGICGSDVHYWQGRIGDFVVKKPMVLGHEASGTVVKVGSLVRHLQPGDRVAIQPGAPRQTDEFCKIGRYNLSPTIFFCATPPDDGNLCRFYKHNANFCYKLPDNVTFEEGALIEPLSVGIHACRRAGVTLGNKVLVCGAGPIGLVNLLAAKAMGAAQVVVTDLSASRLSKAKEVGADFILEISNESPEEIAKKVEGLLGSKPEVTIECTGVETSIQAGIYATHSGGTLVLVGLGSEMTSVPLVHAATREVDIKGVFRYCNTWPMAISMLASKSVNVKPLVTHRFPLEKALEAFETSKKGLGLKVMIKCDPSDQNP
For the molecule B4, in series [7], the enzyme activity level worked out at 1447 U/mL and the “regeneration of NADH (NADH production, 0-36 min)” value is recorded as “greater regeneration of NADH”.
